The source of these data is article PMC6804483 (Acta Pharmaceutica Sinica. B, 2019).

[ ]: non-standard residue; d: D form. The star is where a group is joined. 5FAM = O=C1OC2(c3ccc(O)cc3Oc3cc(O)ccc32)c2ccc(C(=O)*)cc21; pT = C[C@@H](OP(=O)(O)O)[C@H](N)C(=O)O

Test [1] addresses Polo-like kinase 1 (PLK1) Polo-box domain (Homo sapiens, UniProt P53350). Nature of the test: microscale thermophoresis with labeled PLK1 PBD. The test is classed as binding. (MST reads how a fluorescent partner responds to local heating, with and without ligand.)
A further test addresses T1, PLK2 Polo-box domain (Homo sapiens, UniProt Q9NYY3).
T1 sequence (Q9NYY3 355-685): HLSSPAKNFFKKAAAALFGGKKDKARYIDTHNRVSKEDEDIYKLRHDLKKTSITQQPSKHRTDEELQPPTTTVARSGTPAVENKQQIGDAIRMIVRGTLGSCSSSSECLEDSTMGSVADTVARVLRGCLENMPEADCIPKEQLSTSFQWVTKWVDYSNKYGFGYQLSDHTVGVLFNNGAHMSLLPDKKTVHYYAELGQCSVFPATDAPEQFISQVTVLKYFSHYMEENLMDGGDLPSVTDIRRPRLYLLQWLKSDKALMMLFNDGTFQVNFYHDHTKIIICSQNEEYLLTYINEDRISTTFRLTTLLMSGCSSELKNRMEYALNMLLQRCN
The experiment in a line: fluorescence polarization competition with fluorescein-labeled phosphopeptide. The test is classed as binding. (In general: Fluorescence polarisation rises when a labelled molecule tumbles more slowly, as on binding a larger partner.)

For test [2], the target named is Polo-box domain (PBD) of human PLK1 (aa 326–603) (human, UniProt P53350 326-603). Nature of the test: fluorescence polarisation.
The target in test [3] is T2, Polo-box domain (PBD) of human PLK2 (aa 355–685) (human, UniProt Q9NYY3 355-685).
T2 sequence (looked up): T1 sequence (Q9NYY3 355-685)
Nature of the test: fluorescence polarisation.

The target in test [4] is T3, Polo-box domain (PBD) of human PLK3 (aa 335–646) (human, UniProt Q9H4B4 335-646).
T3 sequence (looked up): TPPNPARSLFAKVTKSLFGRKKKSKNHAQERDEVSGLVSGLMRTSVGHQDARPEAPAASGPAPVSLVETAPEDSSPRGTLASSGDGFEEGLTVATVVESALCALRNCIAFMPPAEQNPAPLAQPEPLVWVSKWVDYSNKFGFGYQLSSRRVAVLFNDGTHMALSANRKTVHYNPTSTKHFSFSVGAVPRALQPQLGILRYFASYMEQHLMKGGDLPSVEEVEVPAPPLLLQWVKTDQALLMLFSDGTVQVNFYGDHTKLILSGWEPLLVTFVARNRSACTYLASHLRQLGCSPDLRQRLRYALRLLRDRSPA
Nature of the test: fluorescence polarisation.

Sequence of Polo-like kinase 1 (PLK1) Polo-box domain (P53350 326-603): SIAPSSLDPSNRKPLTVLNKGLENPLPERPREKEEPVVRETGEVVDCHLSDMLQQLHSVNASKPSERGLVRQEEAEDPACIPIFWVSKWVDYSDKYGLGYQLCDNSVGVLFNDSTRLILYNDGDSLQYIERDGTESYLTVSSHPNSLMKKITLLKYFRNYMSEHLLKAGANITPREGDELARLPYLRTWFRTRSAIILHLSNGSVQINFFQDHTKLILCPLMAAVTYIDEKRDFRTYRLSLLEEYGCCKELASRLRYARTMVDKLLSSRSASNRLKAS
Sequence of Polo-box domain (PBD) of human PLK1 (aa 326–603) (P53350 326-603): as above

The Kd is the constant that tells how readily two partners part at equilibrium. A word on the IC50: it is the concentration that gives 50% inhibition. Read a high IC50 as a need for much substance. As for `CCOC(=O)c1oc2ccccc2c1CBr` [MCC1019, 3-bromomethyl-benzofuran-2-carboxylic acid ethyl ester], the affinity in test [1], expressed as Kd, was 18.9 µM. For the same molecule, the IC50 on PLK2 Polo-box domain stood at 44.1 ± 14.4 µM.

B1: 5-carboxyfluorescein-GPMQSpTPLNG-OH (peptide)
peptide: 5FAM-GPMQS[pT]PLNG-OH
SMILES: CSCC[C@H](NC(=O)[C@@H]1CCCN1C(=O)CNC(=O)c1ccc2c(c1)C(=O)OC21c2ccc(O)cc2Oc2cc(O)ccc21)C(=O)N[C@@H](CCC(N)=O)C(=O)N[C@@H](CO)C(=O)N[C@H](C(=O)N1CCC[C@H]1C(=O)N[C@@H](CC(C)C)C(=O)N[C@@H](CC(N)=O)C(=O)NCC(=O)O)[C@@H](C)OP(=O)(O)O
Turning to B1, the binding result in test [2] is listed as “binds”.

B2: 5-carboxyfluorescein-GPMQTSpTPKNG-OH (peptide)
peptide: 5FAM-GPMQTS[pT]PKNG-OH
SMILES: CSCC[C@H](NC(=O)[C@@H]1CCCN1C(=O)CNC(=O)c1ccc2c(c1)C(=O)OC21c2ccc(O)cc2Oc2cc(O)ccc21)C(=O)N[C@@H](CCC(N)=O)C(=O)N[C@H](C(=O)N[C@@H](CO)C(=O)N[C@H](C(=O)N1CCC[C@H]1C(=O)N[C@@H](CCCCN)C(=O)N[C@@H](CC(N)=O)C(=O)NCC(=O)O)[C@@H](C)OP(=O)(O)O)[C@@H](C)O
For B2, in test [3], the binding result is recorded as “binds”.

B3: 5-carboxyfluorescein-GPLATSpTPKNG-OH (peptide)
peptide: 5FAM-GPLATS[pT]PKNG-OH
SMILES: CC(C)C[C@H](NC(=O)[C@@H]1CCCN1C(=O)CNC(=O)c1ccc2c(c1)C(=O)OC21c2ccc(O)cc2Oc2cc(O)ccc21)C(=O)N[C@@H](C)C(=O)N[C@H](C(=O)N[C@@H](CO)C(=O)N[C@H](C(=O)N1CCC[C@H]1C(=O)N[C@@H](CCCCN)C(=O)N[C@@H](CC(N)=O)C(=O)NCC(=O)O)[C@@H](C)OP(=O)(O)O)[C@@H](C)O
In the case of B3, the binding result in test [4] was “binds”.
